In US20230167182A1 (BIOSION, published 2023):
Changes are numbered by the printed parent chain. Read-outs that look alike come from different tables or passages of the source.

Columns and labels:
human IL6R-Fc protein [1] = molecular target: T1, human IL6R-Fc protein (human, biotin-labeled in the ELISAs (sites not given)); assay: benchmark blocking ELISA: antibody pre-incubated with biotin-labeled human IL6R-Fc, added to plate-coated Tocilizumab (competitor: Tocilizumab)
T1 construct: In house made; also called biotin-labeled human IL6R-Fc protein
Protocol: ELISA plates were washed once with wash buffer (PBS+0.05% v/v Tween-20, PBST) and then blocked with 200 μl/well blocking buffer (5% w/v non-fatty milk in PBST) overnight at 4° C.
The next day, the anti-IL6R antibodies of the disclosure or controls were diluted with biotin labeled human IL6R-Fc protein (SEQ ID NO: 43, 13.6 ng/ml in 2.5% w/v non-fatty milk in PBST), starting at 100 nM with a 5-fold serial dilution, and incubated at room temperature for 40 minutes. […] After incubation at 37° C. for 40 minutes, plates were washed 4 times using wash buffer. Then streptavidin conjugated HRP was added, and the plates were incubated for 40 minutes at 37° C. The plates were finally washed using wash buffer, and added with TMB. The reaction was stopped using 1M […], and the absorbance was read on a microplate reader using dual wavelength mode with 450 nm for TMB and 630 nm as the reference wavelength. The OD (450-630) values were plotted against antibody concentration. Data was analyzed using Graphpad Prism software and IC₅₀ values were reported.

human IL6R-Fc protein [2] = molecular target: T1, human IL6R-Fc protein; assay: as above; remark: listed apart in the source
Target sequence in this assay (chain, as listed by the source limits assumed): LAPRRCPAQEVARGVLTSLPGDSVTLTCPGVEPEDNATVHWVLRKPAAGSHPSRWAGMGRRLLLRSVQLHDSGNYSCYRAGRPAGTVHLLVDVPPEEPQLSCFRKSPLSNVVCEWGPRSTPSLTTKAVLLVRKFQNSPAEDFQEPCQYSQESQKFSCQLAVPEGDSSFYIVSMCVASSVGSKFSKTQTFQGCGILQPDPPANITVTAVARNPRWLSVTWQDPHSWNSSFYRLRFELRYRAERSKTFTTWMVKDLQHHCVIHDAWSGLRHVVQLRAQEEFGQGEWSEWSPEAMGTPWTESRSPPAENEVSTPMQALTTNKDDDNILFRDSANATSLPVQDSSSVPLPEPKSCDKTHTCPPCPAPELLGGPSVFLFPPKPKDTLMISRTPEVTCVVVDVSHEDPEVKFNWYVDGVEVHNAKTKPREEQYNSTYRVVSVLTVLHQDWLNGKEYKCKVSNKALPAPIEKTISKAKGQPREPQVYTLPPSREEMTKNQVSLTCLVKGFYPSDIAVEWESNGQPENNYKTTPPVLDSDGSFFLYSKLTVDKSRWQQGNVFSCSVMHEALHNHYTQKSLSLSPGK

macaca IL6R-his protein [3] = molecular target: T2, macaca IL6R-his protein (macaca mulatta); assay: indirect ELISA on plate-coated macaca IL6R-his
T2 chain: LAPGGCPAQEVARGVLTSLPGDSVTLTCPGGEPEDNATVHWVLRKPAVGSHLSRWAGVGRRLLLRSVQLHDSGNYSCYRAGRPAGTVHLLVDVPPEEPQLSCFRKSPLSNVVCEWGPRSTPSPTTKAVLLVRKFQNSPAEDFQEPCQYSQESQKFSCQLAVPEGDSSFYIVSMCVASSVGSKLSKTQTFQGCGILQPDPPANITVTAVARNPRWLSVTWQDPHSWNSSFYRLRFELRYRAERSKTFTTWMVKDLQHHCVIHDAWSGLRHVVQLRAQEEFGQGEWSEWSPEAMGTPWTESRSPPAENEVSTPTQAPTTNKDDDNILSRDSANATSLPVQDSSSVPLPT
Protocol: (§1) The anti-IL6R antibodies were tested for their cross-reaction with macaca IL6R. Briefly, 96-well micro plates were coated with 2 μg/ml macaca IL6R-his protein (in house made, amino acid sequence set forth in SEQ ID NO:45) in carbonate/bicarbonate buffer (pH 9.6), 100 μl/well, for 2 hours at 37° C. ELISA plates were washed once with wash buffer (PBS+0.05% v/v Tween-20, PBST) and then blocked with 200 μl/well blocking buffer (5% w/v non-fatty milk in PBST) for 2 hours at 37° C. Plates were washed 4 times and incubated with 100 μl/well serially diluted anti-IL6R antibodies of the disclosure or controls, starting at 66.67 nM with 5-fold serial dilution in PBST with 2.5% w/v non-fat milk, and incubated at 37° C. for 40 minutes. ELISA plates were washed 4 times again and incubated with 100 μl/well Peroxidase AffiniPure Goat Anti-Mouse IgG, Fcγ Fragment Specific (1:5000 dilution in PBST buffer, Jackson ImmunoResearch Laboratories, Inc., Cat #115-035-071) for 40 minutes at 37° C. After the final wash, plates were incubated with 100 μl/well TMB (InnoReagents). The reaction was stopped 3-10 minutes later at room temperature with 50 μl/well 1M H₂SO₄, and the absorbance of each well was read on a microplate reader using dual wavelength mode with 450 nm for TMB and 630 nm as the reference wavelength. Then the OD (450-630) values were plotted against antibody concentration. Data was analyzed using Graphpad Prism software and EC₅₀ values were reported.

macaca IL6R-his protein [4] = molecular target: T2, macaca IL6R-his protein; assay: indirect ELISA on plate-coated macaca IL6R-his
Protocol: as §1

[5] = molecular target: T3, recombinant human IL6R-his (human, UniProt P08887 20-365); assay: SPR Biacore; purified antibody captured by anti-human IgG on CM5, antigen in flow
T3 construct: In house made; the entry includes the C-terminal His tag; also called human IL6R-his protein
T3 sequence: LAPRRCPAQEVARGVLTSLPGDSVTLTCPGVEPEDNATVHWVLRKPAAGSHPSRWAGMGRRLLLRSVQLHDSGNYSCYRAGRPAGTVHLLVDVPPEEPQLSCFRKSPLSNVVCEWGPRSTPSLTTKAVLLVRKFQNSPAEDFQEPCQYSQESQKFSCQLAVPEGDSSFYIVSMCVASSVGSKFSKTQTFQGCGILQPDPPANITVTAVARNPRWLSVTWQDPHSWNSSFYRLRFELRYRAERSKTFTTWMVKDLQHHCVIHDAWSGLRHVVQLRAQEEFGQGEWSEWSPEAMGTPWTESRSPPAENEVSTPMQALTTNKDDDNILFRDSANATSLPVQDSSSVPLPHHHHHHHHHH

macaca IL6R-his protein [6] = molecular target: T2, macaca IL6R-his protein; assay: as above

B1: mouse anti-IL6R monoclonal antibody 1F7 (antibody, V domains shown)
VH: QVQLQQPGAELVKPGASVKLSCKASDYTFTSYWMHWVKQRPGQGLEWIGEINPSNGRTNYNEKFKNKATLTVDKSSSTAYVQLYSLTSEDSAVYYCARLSIHYVFDYWGQGTTLTVSS
VL: ELVLTQSPTTMAASPGEKITFTCSASSSISSNYLHWYQQKPGFSPKLLISGTSNLASGVPPRFSGSGSGTSYSLTIVTMEAEDVATYYCQQGSGIPFTFGSGTKLEIK
notes: Mouse hybridoma mAb
For B1, which IC50 (human IL6R-Fc protein [1]) is on record?
The IC50 was 311 pM.

B2: mouse anti-IL6R monoclonal antibody 1H7 (antibody, V domains shown)
VH: QVQLQQPGTELVKPGASVKLSCKASGYTFTNYWMHWVKQRPGQGLDWIGEINPTNGRTNYNENFKSKATLTVDKSSSTAYMQLSSLTSEDSAVYYCARLNTHYVFDSWGQGTTLTLSS
VL: B1 VL with L2I, M11L, A25V, G51R, N54T, P61A, V77G, I107L
notes: Mouse hybridoma mAb
Which IC50 (human IL6R-Fc protein [2]) does the source give for B2 here?
The IC50 was 186 pM.

B3: mouse anti-IL6R monoclonal antibody 1D4 (antibody, V domains shown)
VH: B2 VH with T9A, N31S, Q39V, D46E, N63D, D73N, K74S, S107Y, L116V
VL: B1 VL with L2I, T10I, M11L, A25V, S50Y, G51R, P61A, V77G
notes: Mouse hybridoma mAb
How did the EC50 (macaca IL6R-his protein [3]) turn out when B3 was run?
The EC50 was 175 pM.

What about the IC50 (human IL6R-Fc protein [1]) of the same binder?
Its IC50 is 466 pM.

B4: mouse anti-IL6R monoclonal antibody 1A3 (antibody, V domains shown)
VH: QVQLQQPGAELVKPGASVKLSCKASGYTFTSYWMHWVKQRPAQGLEWIGEINPSNGRTNFNEKFKTKATLTVDKSSNTAYMQLSSLTSEDSAVYSCLRLNTHYVFDYWGQGTTLTVSS
VL: B1 VL with L2I, F21I, G51R, P61T, V77G, E82G
notes: Mouse hybridoma mAb purified on Protein A
B4 was tested. Which EC50 (macaca IL6R-his protein [3]) did it give?
Its EC50 is 228 pM.

B5: mouse anti-IL6R monoclonal antibody 1G1 (antibody, V domains shown)
VH: B2 VH with T9A, N31S, Q39V, D46E, N63D, D73E, K74S, L83F, S107Y, L116V
VL: B1 VL with L2I, T10I, M11L, A25V, S50Y, G51R, P61A, V77G
notes: Mouse hybridoma mAb
For B5, which EC50 (macaca IL6R-his protein [4]) is on record?
Its EC50 is 501 pM.

B6: mouse anti-IL6R monoclonal antibody 1B5 (antibody, V domains shown)
VH: B2 VH with T9A, N31S, D46E, T54S, S107Y, L116V
VL: B1 VL with L2I, T10I, M11L, A25V, S50Y, G51R, P61A, V77G
notes: Mouse hybridoma mAb
How did the IC50 (human IL6R-Fc protein [2]) turn out when B6 was run?
The IC50 was 230 pM.

B7: mouse anti-IL6R monoclonal antibody 1H9 (antibody, V domains shown)
VH: QVQLQQPGAELVKPGASVKLSCKASGYTFTSYWMHWVKLRPGQGLEWIGEINPTNGRTNYYEKFKNRATLTADKSSSTAYMQLSSLTFEDSAVYFCAKFHYSRWYFDVWGTGTTVTVSS
VL: DIVMTQSQKFMSTSVGDRVSITCKASQNVGTAVVWYQQKPGQSPKLLINPASNRYTGVPDRFTGSGSGTDFTLTISNMQSEDLADYFCQQYSSYPLTFGAGTKLELK
notes: Mouse hybridoma mAb
Which EC50 (macaca IL6R-his protein [4]) does the source give for B7 here?
Its EC50 is 340 pM.

B8: Tocilizumab (antibody, human IgG1, kappa, V domains shown)
VH: QVQLQESGPGLVRPSQTLSLTCTVSGYSITSDHAWSWVRQPPGRGLEWIGYISYSGITTYNPSLKSRVTMLRDTSKNQFSLRLSSVTAADTAVYYCARSLARTTAMDYWGQGSLVTVSS
VL: DIQMTQSPSSLSASVGDRVTITCRASQDISSYLNWYQQKPGKAPKLLIYYTSRLHSGVPSRFSGSGSGTDFTFTISSLQPEDIATYYCQQGNTLPYTFGQGTKVEIKR
notes: In house made; also called benchmark; Actemra
What does the source list for B8?
EC50 (macaca IL6R-his protein [4]): 57.5 pM; Kd [5]: 7420 pM; Kd (macaca IL6R-his protein [6]): 9160 pM; EC50 (macaca IL6R-his protein [3]): 58.9 pM; IC50 (human IL6R-Fc protein [2]): 812 pM; IC50 (human IL6R-Fc protein [1]): 2580 pM

B9: humanized antibody hu1H7-V5 (antibody, human IgG1, kappa, V domains shown)
VH: QVQLVQSGAEVKKPGASVKVSCKASGYTFTNYWMHWVRQAPGQGLEWIGEINPTNGRTNYNENFKSRVTLTVDTSTSTVYMELSSLRSEDTAVYYCARLNTHYVFDSWGQGTLVTVSS
VL: EIVLTQSPGTLSLSPGERATLSCSVSSSISSNYLHWYQQKPGLSPRLLISRTSTLASGIPARFSGSGSGTEYTLTISRMQSEDFAVYYCQQGSGIPFTFGQGTKLEIKR
notes: Human IgG1 / kappa
B9 was tested. Which Kd [5] did it give?
Its Kd is 773 pM.

And the koff [5]?
The koff was 0.000112 s⁻¹.

And the kon [5]?
The kon was 145000 M⁻¹ s⁻¹.

What about the Kd (macaca IL6R-his protein [6]) of the same binder?
The Kd was 1580 pM.

And the koff (macaca IL6R-his protein [6])?
Its koff is 0.00012 s⁻¹.

And the kon (macaca IL6R-his protein [6])?
The kon was 75800 M⁻¹ s⁻¹.

B10: Chimeric 1H7 (antibody, human IgG1, kappa, V domains shown)
VH: B2 VH
VL: EIVLTQSPTTLAASPGEKITFTCSVSSSISSNYLHWYQQKPGFSPKLLISRTSTLASGVPARFSGSGSGTSYSLTIGTMEAEDVATYYCQQGSGIPFTFGSGTKLELKR
notes: Mouse variable regions on human IgG1 / human kappa constant regions; also called chimeric antibody 1H7
What does the source list for B10?
Kd [5]: 850 pM; koff [5]: 0.000112 s⁻¹; kon [5]: 132000 M⁻¹ s⁻¹; Kd (macaca IL6R-his protein [6]): 1180 pM; koff (macaca IL6R-his protein [6]): 0.000112 s⁻¹; kon (macaca IL6R-his protein [6]): 94800 M⁻¹ s⁻¹; IC50 (human IL6R-Fc protein [2]): 194 pM
